# Experimental data from publication PMC6902690 (The FASEB Journal, 2019).
# Molecular target: factor H binding protein variant 1, recombinant (Neisseria meningitidis serogroup B …, UniProt Q9JXV4, strain)
# Test: Gyrolab immunoassay; biotinylated fHbp v1, v2 or v3 as capture reagent (100 µg/ml); Fabs at 10 µg/ml in Rexxip H; detection with goat anti-human IgG Fab fragment specific-Alexa 647 (25 nM); Bioaffy 200 CDs, 3-step method; positive when the fluorescent signal was higher than 10
# Conditions: both partners purified
binder,measurement,value
"huFab 1E6 (recombinant Fab produced in E. coli) (Fab, V domains shown) VH: EVQLVQSGAEVKKPGSSVKVSCKASGGTVIDYPITWVRQAPGQGLEWVGGFVPLFRTSNYGQKFQGRVTITADKSTSTASMELNSLTSEDTAIYYCARGDTAMGPFDYWGQGTLVTVSS VL: SYVLTQPPSLSVAPGKTATLTCGGNNIAGKTVHWYQQRPGQAPVLVISYDSDRPSGIPERFSGSNSANTATLTISRVEAGDEADYYCQVWDRNSDHWVFGGGTKLTVL",binding result,binds
